Laboratory results published in publication doi:10.1101/2021.04.20.440599, “Structures of a deAMPylation complex rationalise the switch between antagonistic catalytic activities of FICD (14/96/109)” (bioRxiv, 2021).

B1: FICD^L258D-H363A (residues 104-445) (enzyme, human, UniProt Q9BVA6 104-445, looked up)
chain: LEARAALNQALEMKRQGKREKAQKLFMHALKMDPDFVDALTEFGIFSEEDKDIIQADYLYTRALTISPYHEKALVNRDRTLPLVEEIDQRYFSIIDSKVKKVMSIPKGNSALRRVMEETYYHHIYHTVAIEGNTLTLSEIRHILETRYAVPGKSDEEQNEVIGMHAAMKYINTTLVSRIGSVTISDVLEIHRRVLGYVDPVEAGRFRTTQVLVGHHIPPHPQDVEKQMQEFVQWLNSEEAMNLHPVEFAALAHYKLVYIAPFIDGNGRTSRLLMNLILMQAGYPPITIRKEQRSDYYHVLEAANEGDVRPFIRFIAKCTETTLDTLLFATTEYSVALPEAQP
notes: FICD, human, residues 104-445 (only the predicted structured regions were expressed); Used in the crystal structures and as BLI analyte; also called monomeric FICD^L258D-H363A; monomeric FICD; source: E. coli (T7 Express lysY/Iq or M15), purified (Ni-NTA, on-bead Ulp1 cleavage, anion exchange, gel filtration); not shown: His6-Smt3, N-terminal, cleaved
B2: TPR domain oxidised monomeric FICD^D160C-T183C-L258D-H363A-C421S (enzyme, human, UniProt Q9BVA6 104-445, looked up)
chain: LEARAALNQALEMKRQGKREKAQKLFMHALKMDPDFVDALTEFGIFSEEDKDIIQACYLYTRALTISPYHEKALVNRDRCLPLVEEIDQRYFSIIDSKVKKVMSIPKGNSALRRVMEETYYHHIYHTVAIEGNTLTLSEIRHILETRYAVPGKSDEEQNEVIGMHAAMKYINTTLVSRIGSVTISDVLEIHRRVLGYVDPVEAGRFRTTQVLVGHHIPPHPQDVEKQMQEFVQWLNSEEAMNLHPVEFAALAHYKLVYIAPFIDGNGRTSRLLMNLILMQAGYPPITIRKEQRSDYYHVLEAANEGDVRPFIRFIAKSTETTLDTLLFATTEYSVALPEAQP
modifications: intramolecular disulphide bond between Cys160 and Cys183 (TPRox)
notes: FICD, human, residues 104-445, FICD^D160C-T183C-C421S derivative of FICD^L258D-H363A; also called TPRox (monomeric); FICD(TPRox); source: E. coli, purified; oxidised with CuSO4 and 1,10-phenanthroline, further anion exchange and gel filtration; not shown: His6-Smt3, N-terminal, cleaved
B3: FICD^H363A (residues 104-445) (enzyme, human, UniProt Q9BVA6 104-445, looked up)
chain: LEARAALNQALEMKRQGKREKAQKLFMHALKMDPDFVDALTEFGIFSEEDKDIIQADYLYTRALTISPYHEKALVNRDRTLPLVEEIDQRYFSIIDSKVKKVMSIPKGNSALRRVMEETYYHHIYHTVAIEGNTLTLSEIRHILETRYAVPGKSLEEQNEVIGMHAAMKYINTTLVSRIGSVTISDVLEIHRRVLGYVDPVEAGRFRTTQVLVGHHIPPHPQDVEKQMQEFVQWLNSEEAMNLHPVEFAALAHYKLVYIAPFIDGNGRTSRLLMNLILMQAGYPPITIRKEQRSDYYHVLEAANEGDVRPFIRFIAKCTETTLDTLLFATTEYSVALPEAQP
notes: FICD, human, residues 104-445; Used non-deuterated and partially deuterated in SANS, and as BLI analyte; also called dimeric FICD^H363A; dimeric FICD; source: E. coli, purified (Ni-NTA, on-bead Ulp1 cleavage, anion exchange, gel filtration); matchout-deuterated form from E. coli BL21 Star (DE3) in 85% deuterated medium, purified; not shown: His6-Smt3, N-terminal, cleaved
B4: TPR domain oxidised dimeric FICD^D160C-T183C-H363A-C421S (enzyme, human, UniProt Q9BVA6 104-445, looked up)
chain: LEARAALNQALEMKRQGKREKAQKLFMHALKMDPDFVDALTEFGIFSEEDKDIIQACYLYTRALTISPYHEKALVNRDRCLPLVEEIDQRYFSIIDSKVKKVMSIPKGNSALRRVMEETYYHHIYHTVAIEGNTLTLSEIRHILETRYAVPGKSLEEQNEVIGMHAAMKYINTTLVSRIGSVTISDVLEIHRRVLGYVDPVEAGRFRTTQVLVGHHIPPHPQDVEKQMQEFVQWLNSEEAMNLHPVEFAALAHYKLVYIAPFIDGNGRTSRLLMNLILMQAGYPPITIRKEQRSDYYHVLEAANEGDVRPFIRFIAKSTETTLDTLLFATTEYSVALPEAQP
modifications: intramolecular disulphide bond between Cys160 and Cys183 (TPRox)
notes: FICD, human, residues 104-445, FICD^D160C-T183C-C421S derivative of FICD^H363A; also called TPRox (dimeric); FICD(TPRox); source: E. coli, purified; oxidised with CuSO4 and 1,10-phenanthroline, further anion exchange and gel filtration; not shown: His6-Smt3, N-terminal, cleaved

Legend:
[1] = target: T1, AMPylated biotinylated-AviTag-haBiP^T229A-V461F (Chinese hamster, UniProt G3I8R9 27-635, T229A | V461F, AMP covalently attached to Thr518; biotin on the N-terminal Avi-tag); test: BLI; biotinylated Avi-tagged BiP (AMPylated or unmodified) on streptavidin biosensors, activated in 2 mM ATP; apo FICD variants (all H363A) as analytes at 50 nM unless otherwise specified; HKM with 0.05% Triton X-100, 30 °C; second dissociation step with 2 mM ATP; conditions: both partners purified
T1 construct: GS linker between the avi-tag and BiP; BiP, Chinese hamster, residues 27-635; Immobilised BLI ligand; also called BiP-AMP; immobilised AMPylated BiP; source: E. coli, purified; AMPylated in vitro, biotinylated in vitro, made apo, then loaded with 2 mM ATP on the sensor; not shown: His6-Smt3, N-terminal, cleaved; Avi-tag (biotinylated), N-terminal, kept

[2] = target: T2, biotinylated-AviTag-haBiP^T229A-V461F, unmodified, ATP-bound (Chinese hamster, UniProt G3I8R9 27-635, T229A | V461F, biotin on the N-terminal Avi-tag); test: as above; conditions: both partners purified
T2 construct: GS linker between the avi-tag and BiP; BiP, Chinese hamster, residues 27-635; Immobilised BLI ligand; The in vitro AMPylation assay used untagged BiP^T229A-V461F (UK2521); also called BiP:ATP; unmodified BiP; source: E. coli, purified; biotinylated in vitro, made apo, then loaded with 2 mM ATP on the sensor; not shown: His6-Smt3, N-terminal, cleaved; Avi-tag (biotinylated), N-terminal, kept

[3] = target: T3, lid-truncated BiP^T229A-V461F-AMP (residues 27-549) (Chinese hamster, UniProt G3I8R9 27-549, T229A | V461F, AMP covalently attached to Thr518 (Thr518-AMP)); test: crystal structure; heterodimer of FICD^L258D-H363A and lid-truncated BiP-AMP copurified by SEC in TNKMT buffer (mixed 1.5:1 with 250 uM ATP, 50 mM KCl, 2 mM MgCl2); sitting drop at 25 °C; state 1: 0.1 M MES pH 6.5, 10% PEG 4000, 0.2 M NaCl; state 2: 0.1 M Tris pH 8.0, 25% PEG 400; conditions: both partners purified
T3 construct: BiP, Chinese hamster, residues 27-549 (all of the SBD-alpha lid removed but helix A); in the expressed range hamster and human BiP are identical; also called lid-truncated BiP-AMP; AMPylated BiP; source: E. coli, purified (Ni-NTA, on-bead Ulp1 cleavage, anion exchange, gel filtration); AMPylated in vitro with GST-TEV-FICD^E234G; not shown: His6-Smt3, N-terminal, cleaved

[4] = target: the molecule itself; test: contrast variation small angle neutron scattering (SANS); complexes of partially deuterated and non-deuterated dimeric FICD^H363A and full-length BiP-AMP copurified by SEC (1.25:1 BiP-AMP:FICD, 250 uM ATP) into TNKMT(0.2) buffers of varying D2O content; 4.3-5.5 mg/ml, 12 °C
[5] = target: T4, BiP^T229A-V461F-AMP (residues 27-635) (Chinese hamster, UniProt G3I8R9 27-635, T229A | V461F, AMP covalently attached to Thr518); test: as above; conditions: both partners purified
T4 construct: BiP, Chinese hamster, residues 27-635 ('full-length': complete structured region; lacks the acidic N-terminal region and the C-terminal region with KDEL); The deAMPylation assays used BiP^T229A-V461F (UK2521) AMPylated in vitro, with a trace of AMP(FAM)-labelled probe; also called full-length BiP-AMP; full-length AMPylated BiP; source: E. coli, purified; AMPylated in vitro with …
T4 sequence (G3I8R9 27-635 T229A/V461F): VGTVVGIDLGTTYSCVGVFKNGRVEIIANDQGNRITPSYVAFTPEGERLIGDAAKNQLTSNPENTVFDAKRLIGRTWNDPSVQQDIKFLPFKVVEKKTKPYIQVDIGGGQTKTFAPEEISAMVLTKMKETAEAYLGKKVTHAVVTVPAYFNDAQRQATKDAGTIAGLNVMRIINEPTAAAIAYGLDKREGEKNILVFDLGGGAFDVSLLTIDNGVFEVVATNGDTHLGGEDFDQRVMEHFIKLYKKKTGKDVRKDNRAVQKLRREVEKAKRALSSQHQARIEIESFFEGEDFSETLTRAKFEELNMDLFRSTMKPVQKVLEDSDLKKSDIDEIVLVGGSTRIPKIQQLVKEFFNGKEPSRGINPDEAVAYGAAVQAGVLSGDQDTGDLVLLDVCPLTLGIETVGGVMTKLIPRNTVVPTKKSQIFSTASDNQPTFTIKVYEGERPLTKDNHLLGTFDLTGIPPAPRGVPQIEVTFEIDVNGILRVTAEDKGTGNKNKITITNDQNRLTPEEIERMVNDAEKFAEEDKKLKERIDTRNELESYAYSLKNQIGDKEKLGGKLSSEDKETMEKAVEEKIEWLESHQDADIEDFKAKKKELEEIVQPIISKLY

T1 sequence (G3I8R9 other isoform, or with tags, fused parts or gaps T229A | V461F | T229A | V461F | T229A V461F T229A V461F): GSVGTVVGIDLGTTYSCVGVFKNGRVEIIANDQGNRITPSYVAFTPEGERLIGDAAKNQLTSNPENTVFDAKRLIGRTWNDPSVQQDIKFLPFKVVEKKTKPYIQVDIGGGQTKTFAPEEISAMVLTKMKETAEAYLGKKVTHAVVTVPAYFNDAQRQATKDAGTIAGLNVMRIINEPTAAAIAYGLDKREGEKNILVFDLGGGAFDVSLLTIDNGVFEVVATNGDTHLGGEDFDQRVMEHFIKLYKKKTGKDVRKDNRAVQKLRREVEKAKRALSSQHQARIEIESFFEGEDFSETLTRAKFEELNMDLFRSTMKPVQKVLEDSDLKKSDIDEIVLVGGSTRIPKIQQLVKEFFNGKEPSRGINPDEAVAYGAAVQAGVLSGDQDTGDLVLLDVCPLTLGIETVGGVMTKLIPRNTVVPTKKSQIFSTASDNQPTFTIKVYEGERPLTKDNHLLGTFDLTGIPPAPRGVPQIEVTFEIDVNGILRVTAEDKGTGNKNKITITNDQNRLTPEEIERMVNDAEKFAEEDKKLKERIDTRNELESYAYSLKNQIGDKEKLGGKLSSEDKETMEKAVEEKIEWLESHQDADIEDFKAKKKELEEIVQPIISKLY
T2 sequence (G3I8R9 other isoform, or with tags, fused parts or gaps T229A | V461F | T229A | V461F | T229A V461F T229A V461F): as above
T3 sequence (G3I8R9 27-549 T229A/V461F): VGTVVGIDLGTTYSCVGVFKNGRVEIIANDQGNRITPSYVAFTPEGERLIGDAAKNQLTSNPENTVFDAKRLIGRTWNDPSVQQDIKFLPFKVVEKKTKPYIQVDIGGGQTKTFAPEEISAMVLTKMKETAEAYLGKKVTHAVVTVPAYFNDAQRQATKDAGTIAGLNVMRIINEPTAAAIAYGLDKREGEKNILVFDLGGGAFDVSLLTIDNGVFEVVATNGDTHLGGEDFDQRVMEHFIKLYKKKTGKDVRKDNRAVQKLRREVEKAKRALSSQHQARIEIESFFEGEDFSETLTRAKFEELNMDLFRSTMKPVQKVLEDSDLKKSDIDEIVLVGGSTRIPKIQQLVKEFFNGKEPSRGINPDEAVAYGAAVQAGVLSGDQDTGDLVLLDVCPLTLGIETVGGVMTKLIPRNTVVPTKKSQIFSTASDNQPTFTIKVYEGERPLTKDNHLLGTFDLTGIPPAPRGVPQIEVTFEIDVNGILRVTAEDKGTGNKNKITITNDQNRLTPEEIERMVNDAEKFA

Binder | binding result [1] | binding result [2] | binding result [3] | binding result [4] | stoichiometry N [5]
B1 | binds | binds | binds |  | 
B2 | binds | binds |  |  | 
B3 |  |  |  | binds | 1 FICD per BiP-AMP (2:2)
B4 | binds |  |  |  | 
